Results on 1 substance are retold here after publication PMC12886386.

This test has as its target His10-pA-Tn5 (His10-tagged protein A-Tn5 transposase fusion) (not stated | Escherichia coli). As to the kind of experiment: SEC; HiLoad 16/600 Superdex 200 pg after Ni-NTA; buffer C: 50 mM Tris-HCl pH 7.5, 800 mM NaCl, 0.2 mM EDTA, 2 mM DTT, 10% (v/v) glycerol; fractions checked by SDS-PAGE and 260 nm/280 nm ratio. A general note: SEC sorts molecules by how far they enter the pores of the column.

For “His10-pA-Tn5 (His10-tagged protein A-Tn5 transposase fusion) (enzyme)”, the stoichiometry N (usually a count of units in the complex or per binding partner) amounted to 2.
